Experimental data reported in the supplement of paper PMC9170038.

Tested on: K4 kissing-loop RNA reporter
Experiment: apparent KD of K4 kissing-loop reporter; higher = weaker reporter binding
Settings: Eterna round: R107
Experimental: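 RNA-MaP round R107: designed RNA switches with theophylline, tryptophan, arginine or FMN aptamers are transcribed on-chip within common flanks. They are titrated with a labelled K4 kissing-loop RNA reporter in RNA-MaP buffer (100 mM Tris pH 7.5, 80 mM KCl, 4 mM MgCl2), without ligand or with the indicated ligand. Median apparent KD per design.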

[1] = input ligand: theophylline 20 uM
[2] = input ligand: tryptophan 2.4 mM
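Further: bound reporter read as fluorescence of individual clusters on recovered sequencing chips by microscopy, with normalized cluster intensities fitted with a binding model.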

Sequence	apparent KD of K4 kissing-loop reporter (input ligand: FMN 200 uM) [nM]	apparent KD of K4 kissing-loop reporter (input ligand: arginine 13.2 mM) [nM]	apparent KD of K4 kissing-loop reporter (input ligand: none) [nM]	apparent KD of K4 kissing-loop reporter [1] [nM]	apparent KD of K4 kissing-loop reporter [2] [nM]
CCGCCGGUCGGAAGGAGCGCACGCCAGAGUGAUGUUCUGGCGCGGGCAUUUUGUGCCCGCGUGCAGGUAGGUCGCCGAUUCUGGC [Quxeorti]	602	414	427	452	498
AAGCAGUCACUCAAAGCCAUCGAAGAUGGACGAGGACCGGUACGGCCGCCACUCGGAGUGAUGUUCCGAAGACUGCAAAAUAAAA	408	295	304	511	230
AGUGGUGUAUCUUUUAAGAGUGAUGUUUUUCGAGGACCGGUACGGCCGCCACUCGAGUGAUGAGUGCGUCGUUGUGGUGAUUAGU [#14 K4 Tryptophan A Exclusion]	816	530	826	688	262
AUUCGCAGUGAUGUUGCGAUUCCGUUGAGGGAGGAUAUUGGUAAUACAAGAAGGCCCGGCUGCGGGUGAUGUUCGCAUUAGGGCC [Exclusion FMN A GF18]	151	143	146	153	126
AAGGUUGUGCAUGGGAGUGAUGUUCCCACGCAGGAUAUCGCUCACGCGAGAAGGGCGAGCACAACCGCUCAAGAAACUUGAGCAA [Omei KL FMN A SS C v2]	133	118	133	106	126
CGCAGUGAUGUUGCGAGUAGAUACAGGGAAGGAGCGCCGUAGUAGGCAGGUAGGUCGCCCACGCAGUGAUGUUGCGUCAUAGGGU [Exclusion Arginine A GF 5]	104	91.8	97.1	116	87.6
UUUAUAUAGUCGGCCGCCACUGAUUUUUUUAUAUGUUUAUGUUUAUACGAGUGAUGUUCGAUAUACAGGACCGGGACUUUUGUUA [JR_SSTryptoB_Sub018]	186	237	238	294	180
GCCGUACGCAUGGAUACCAGAUGGCACUAUAAUCUACCAGAGUGAUGUUCUGGCCUGCCCAUCCCUUGGCAGCCAUGCGUACGGC	293	199	287	171	206
UCUGAAGGUGGAGGAUAUUGAUUGAAUCUUGGUCAGGAGUGAUGUUCCGGGAAGCCUUGGAUUCAUCGAGAAGGCCAAGGAUAGU [#10 K4 FMN B Same State]	144	259	243	306	225
GUAAGAUGAGGAGGAGGAUGAAUUACUGAAGGAGCGCAUAUAAAUGCAGGUAGGUCGCGGUAAAGAAGUAUAGUGAUGUUAUAUA [#20 K4 Arginine A Same State]	452	508	464	459	474
CUCGUGGGUUUGAGAGGGCUUGUGGGAAGUGAGGAUAUUUAGGGAGAAAGAAGGCACUAUAGAAUAUAGUGAUGUUAUAUAAGGG [SSFMNA.N]	314	95.7	200	273	212
AUUAAUAUCACGGCCGCCACUGAAUAUUGUUUUUAUAUUUAGAAUAAUUGCCAGUGAUGUUGGAUCAGGACCGGGUGAUUUUAUA [JR_SSTryptoB_Sub008]	775	489	727	739	360
UAACGCCACUAAGAUACCAGACAUACAGAUCGGAUCUCCUAAAGAGAGUGAUGUUCUCUAGUCCCUUGGCAGCUUCUGGACUCCC [theeternabot_sameState_KL_Theo_B_9]	296	356	406	396	291
GUGUGACUAGUGAUGUUGGUUGCGUGGGAAGGAGCGCAGUAAAAUGCAGGUAGGUCGCCCGUAUCUCUGAUAAAAGAUUAAUUCA [KL-SSArg-A10]	181	128	158	137	153
AGAAGAUAUCGUGAUACCAGACCGCGGAGAGGCCGGAAGAGGGUAGUGAUGUUGCAUGCAGUCCCUUGGCAGCACUGACAGUAUU [theeternabot_sameState_KL_Theo_B_40]	754	287	694	539	601
UUAUUAAUAACAGAUACCAGUCCAGAAUGAAUACUAUAGUGAUGUUAUAAUAAAGGGAAGGACCCUUGGCAGCUGUAAUAUAUUU [AstrosSSTheB#1]	431	381	501	338	368
UUAGGAGUGGAAGGAUAUCCUGGUGUGGGUGAUGUUAGUGAUGUUGAAAGUGCAGUGAUGUUGCGCGGAGAAGGUCCGGUGUUGA [BDazzled - #7 - Exc. FMN B]	180	153	173	256	157
AGAGUUAAUUAGUCUUUUUUUACAUUAAGUCAGGAUAUCGUAUAUUCGAGAAGGGACACAUGCUAGUGAUGUUAGCUAUUUCUCA [JR_Nu_ExcFMNA_Sub019]	39.7	79.6	47.5	71.7	44.4
UUAGGAGUGGGAGGAUAUCCUGGUGUGGGUGAUGUUAGUGAUGUUGAAAGUGUAGUGAUGUUGUGCGGAGAAGGUCCAGUGUUGA [BDazzled - #10 - Exc. FMN B]	504	295	459	646	292
GAAGGUCAAAGACCUUCGUGCACACCUGAUACCAGUCGCGAAAGCGACCCUUGGCAGCAGGGCAGUGAUGUUGCCAGUGCACAAA [Omei KL Theo A SS A v5]	194	176	191	164	159
GGAUAGGACAGAGGAUAUGGACAGUCUACAAAGUAGGCUGAAUAAAUCCUUGAAUGGAGUGAUGUUCCAGAAGGCUGUCCUAUCG [FmnBX 22 #SwitchBubble #StaticStem #Palindromic]	337	384	503	481	426
CCGACUGCAGGAAGGAGCGGCGGUUGGAGUGAUGUUCCGGGUAGUGAUGUUACCAAACUCCGCCAGGUAGGUCGCCUGUUGCUCG [Same State Arginine B GF10]	151	112	165	179	144
